How the values were obtained:
Format in all cases: cell-based, human
GSC7 cells [1] = assay: Flow cytometry of mNGreen reporter in GSC7
Method: (§1) Cells were seeded at the required density. The following day the transfection was carried out. For this the Plus reagent and Lipofectamine LTX (Life Technologies, 15338030) were each diluted in half the volume of Opti-MEM I Reduced-Serum Medium (further referred to as Optimem) (Life Technologies, 31985062). Following this step, the Plus reagent/Optimem premix was added to all DNA samples followed by the Lipofectamine LTX/Optimem premix. The transfection mix was incubated for 5 min at room temperature and then carefully dropped on the cells. Generally, no media change was carried out. Cells were analysed two days following transfection.
For flow cytometry, cells were detached, pelleted and resuspended in an appropriate volume of flow cytometry buffer (1% BSA in PBS, v/v). Cells were stained with Draq7 (Abcam, ab109202, f.c. 0.1 μM) as a live/dead stain and analysed using the BD LSRFortessa cell analyser (4 lasers, BD Bioscience). Analysis of flow cytometry data was carried out in the FlowJo Analysis software (FlowJo, version 10.6.2).

GSC7 cells [2] = assay: Nano-Glo Dual-Luciferase Reporter (Nanoglo DLR) enhancer assay in GSC7
Text: We chose an arrayed library format, with 160 bp enhancer fragments individually cloned into separate plasmids and arrayed in 96 well plates. These 160 bp were synthesized as a single pool of oligos, then randomly cloned into the plasmid and isolated. 20 bp×2 were needed for PCR amplification of the pool and so a library of 200 bp fragments was synthesized (Twist Biosciences). To meet our oligo synthesis strategy, ChIP-seq peaks expressed by GSCs were merged into a single oligo. This oligonucleotide pool was PCR-amplified (using limited cycles to reduce bias and ‘jackpot’ products meaning products which are easier to amplify will overtake the oligonucleotide pool) and cloned into the expression vector by an efficient Golden Gate reaction. 4579 individual plasmids were then randomly picked, isolated and plated as an arrayed plasmid DNA library on 96 well plates (×48). The bacterial colony picking and production of plasmid minipreps were supported by the Edinburgh Genome Foundry (S. Rosser). This library was then screened using the optimised Nanoglo DLR assay (Nano-Glo Dual-Luciferase Reporter Assay, Promega) in 384 well format. Each plate was transiently transfected together with PGK-FFLuc in a 1:10 ratio into GSC7 cells. 2 days later a Nanoglo DLR assay was performed and assayed on a plate reader.
Cells were seeded in 384 well plates using a multidrop and transfected the following day using the CyBio Felix. Two days later the experiment was terminated with a Nanoglo DLR assay and all hits with a fold change to mCMV greater than 10 were Sanger sequenced and mapped back to the genome.
as §1
This assay consists of two steps. […] First, the Firefly Luciferase activity is measured which allows to normalise to transfection efficiency. In a second step, the activity of Nanoluc is determined which is the readout of the plasmid of interest. […] 20 μl cell lysate in 96 well format or 25 μl cell lysate in 384 well format was then transferred into the corresponding opaque white plate and luminescence was measured at for 0.1 s per well using the Ensight Multimode Plate Reader. […] Nanoluc activity was measured for 0.1 s per well, again using Ensight Multimode Plate Reader. […]

[3] = system: patient-derived glioblastoma cell lines; assay: SSE-7 mCherry expression across patient-derived glioblastoma cell lines
Text: The experiment described in Example 8 was repeated in five patient-derived glioblastoma cell lines (E17, E21, E28, E31, E34).

Molecule | activity compared with full CMV by flow cytometry (GSC7 cells [1]) | activity compared with full CMV by Nanoglo DLR assay (GSC7 cells [2]) | mCherry expression ([3]; E21, E31 and E34) | mCherry expression ([3]; GSC7, E17 and E28)
SSE-1: synthetic super-enhancer ID1101_ID2904_ID0109_ID4328, SEQ ID NO: 64 (nucleic acid) DNA: GTGAGTGTGACTCACATGCTGGCATCAGAGCCCCTCTTAGAGCTTAGAACACTGGGCCTCTGTCAGGCAAAGAAAAGGAGTCCCTATGAATAGCCATCTCCACAAATAGCAGTTACTGTCACTTCTTAAAAGACACAAGCATGGCTGGAGACCGGCACTGTGCATGTTCTTGGGAAAAAGTGGTATTTAATGAAGGCGCTTTGAGCTGAATCAAAGAGCCTCATTCTTCTGAAAGTCCTTCTTCCTAGTCTCTGCATCCGGCTCCTATCAAAGGAAATCCACAGCTTTGGCTTTTCGTTGCTGTTGTCATGGAAATCGTTGAAATTGGATCCTGAGGAGAATGTCACCACCTCTTTGACAATAACTAGCTTTCAGAGCTGAACACAGTGAATCTGGATACTGTGTATATGTTTAAATGAGTTAGGAAATGACATCACATTATTTATTTCTTCTTTTGTGACTTAGTAAATTGACTTGGCCTACAATCTATTCTCCATAGTCATCAGAGTTTCTTTAAAGGCACGGTTCAGACAATGGCACCCTCTGTTCCAAACCCTCCAGGGCTTCCTATTTCACTTAGCATAAAAACCAAAGTCCTCACAATGACCGACAAGTCTTCACACAATGTGCCCCTTCATTG | higher than CMV | higher than CMV |  | 
SSE-2: synthetic super-enhancer ID0109_ID4328_ID0876_ID2339, SEQ ID NO: 65 (nucleic acid) DNA: GAAATTGGATCCTGAGGAGAATGTCACCACCTCTTTGACAATAACTAGCTTTCAGAGCTGAACACAGTGAATCTGGATACTGTGTATATGTTTAAATGAGTTAGGAAATGACATCACATTATTTATTTCTTCTTTTGTGACTTAGTAAATTGACTTGGCCTACAATCTATTCTCCATAGTCATCAGAGTTTCTTTAAAGGCACGGTTCAGACAATGGCACCCTCTGTTCCAAACCCTCCAGGGCTTCCTATTTCACTTAGCATAAAAACCAAAGTCCTCACAATGACCGACAAGTCTTCACACAATGTGCCCCTTCATTGGAGCAGGCAGTCATTTGGTTCCCTTCTCTGAATGCATTGGCTCTGATCCACGGCGCCTCAGGAAGTGAAAGGGAGCAGGCAGTGAGGCCAAGCCATGAATGTTGGGCCCTTTTCTTAGAAAACAAAGGGTTCACTTTAGGCTAGGAGGAAACATCCGGGGGTCGGCGGAACTGAGTCTCCTTTGTGGAGCCCCTCATTTGCATGATAAACCCCGGGGACAAAGTGTGTTCTTGTTACTTGGACTGTTTCTTGGAAACTGCTGCTACCTGGAGCGAGTGAACACAGGGCAAGTATTCTCGCCCACAGCAACGTGTCATTGA | higher than CMV | higher than CMV |  | 
SSE-3: synthetic super-enhancer ID0876_ID2339_ID1737_ID0663, SEQ ID NO: 66 (nucleic acid) DNA: GAGCAGGCAGTCATTTGGTTCCCTTCTCTGAATGCATTGGCTCTGATCCACGGCGCCTCAGGAAGTGAAAGGGAGCAGGCAGTGAGGCCAAGCCATGAATGTTGGGCCCTTTTCTTAGAAAACAAAGGGTTCACTTTAGGCTAGGAGGAAACATCCGGGGGTCGGCGGAACTGAGTCTCCTTTGTGGAGCCCCTCATTTGCATGATAAACCCCGGGGACAAAGTGTGTTCTTGTTACTTGGACTGTTTCTTGGAAACTGCTGCTACCTGGAGCGAGTGAACACAGGGCAAGTATTCTCGCCCACAGCAACGTGTCATTGACAACGTTTTTGGCAGATGCAGCTCTTTCTGAACAGTAAGTCATTGTTGAGTGACATGAATAGGACGAGAGCTACAGAAAATGAAGGTTTCAAAAGATTGTCTAAAACAAAAGTCCTTTCAGTCCCGTATTCAGAGTTATAAATTCCGATTAGCCAAGGAAGCTCTGAGTCTAAATACCAGCAAAGCTCAGCCCCTGCAAGTGGGGACGAATTATTTGAAAGGTCATCCTAGAGACACTGAACAAAGGGCCTCTAGCAGCT | higher than CMV | higher than CMV |  | 
SSE-5: synthetic super-enhancer ID2706_ID3547_ID3548_ID3146, SEQ ID NO: 68 (nucleic acid) DNA: CCAATGCCAAAGCAGTTTACATTTTACAGATGCCATGGCAACCGTCAGGAAGTTACCCTGTATGGTCTAAGAGGGGGAGGAACCCTCAGTTCCGGGAATTGCCCGCCCCTTTCCCGGAAACTCATGAATAATCCACCCCGTTCCCCCTTAACAAAAGCCACCTCCTCCCTCCTGAAAGGCACCATTGGTCACCAAAACAAGTCCCCTTTGTCCTCCACCGCAGCTGGAGCCTGGGCCTTCCATCTCCTGGGGGCCAATAAAACCCCAGATCAGCCAATCCTCCCTCCCTGGCTCTGTCATCCAAACACTCCCCTGCAACAGATGTACACACAGAGCCCATTGTTTTCTCTAGAAATGTAAACTGCACGTCACAGTTACTCCATACACACCACAAACAGACTCCCTTTGTTCTCAGGATATGTGTTGACACAAGAATATGTCATCCTCTCAGCTCCAGACTGAAAGAGATGGGTGTGTGGGAGTGGGGGAAGCTGAGCTCCAGGCAGACAGCACAGAGCCGCCTTGTCCAACCCAGCCAGGTGCCATGGCAACCAACAAAGGCCCCATTGTCCCGTGTCTGCTGGGCCTTCCTGAGGCTCTGGGGTCAGAGTCCCGGTT | higher than CMV | higher than CMV |  | 
SSE-7: synthetic super-enhancer ID4310_ID4428_ID0785_ID3836, SEQ ID NO: 70 (nucleic acid) DNA: TTGTCCTGCCTTTGAGAACACTGGAAGGGCACTGAAGGCTGACCAGCATGCACCTCACCCCACCTCCTCTCTGTCTCATCCTCAGCCATCTAAGCGGGAGACTCATCAGGCTTAAATTCTCATTCTTATCCAAGATTCTTCTGCTTCAAATGAGTCTAAATGGAGATCCTCCCATAAAGGGAGTTCTGTTTGGGCTTCCCTTGGAAGTCCATTGAAAGCGTTTCACATTTCAATGCTTCTTTACATTCTCCTCTAGAATGAATCTGGAAGGGCCATTTCATTCCAGCCCTATCAGATTTACTACTTCCTCCTGTAAGAATGAACTGGGCCCAGCTGGGCATTTGCATCAAAGTGCCTCACCAGAGTTCCCAGCTGCTCTGGCAGAGTGCCCAGGCTTGCCCCAGAGCCCAAACAGAATGCTCTTTGAGATGCCTCTGGTTTTCATACCCTTCCAGGGGAGCAGTTTCCTGGCTGTGTCGTCAGATACTGTGGTTTACGCTGTTCCGGAGTCTGGAGGTCTGTGTGCCTTTGATCTCTTTCCCAACTAATTTGCACAGCTGCTGTGGAGGCCCTCATGAATGACCTCTTTCTTTCCTTTCT | higher than CMV |  | lower frequency of expression | highly expressed and comparable to full-length CMV

From patent US20240092847A1, “FUNCTIONAL NUCLEIC ACID MOLECULE AND METHOD” (The University Court of The University of Edinburgh, priority 2021, published 2024)
